What was measured:
Type in all cases: cell-based, human
Akt, eNOS and 42/44 = test: Phosphorylation of Tie2 downstream signaling proteins in HUVEC (immunoblot); conditions: 60 nM 10D6 + 40 nM Ang2, or Ang1 4 nM alone, 30 min
Procedure: To see whether antibody 10D6 induces the activation of the downstream signaling of a Tie2 receptor as well as the activation of the Tie2 receptor itself, the phosphorylation degrees of proteins participating in the downstream signaling when Ang2 alone or Ang2 and antibody 10D6 was treated were tested using immune blotting.
Specifically, HUVEC (ATCC) cells (1×10^6) were cultured in a 6-well culture dish using EGM-2 (Lonza) media at 37° C. and when they reached 80˜90% confluency, the media were replaced with serum-free media (Lonza) and cultured at 37° C. for 6 to 16 hours. The dish was washed once with PBS, and the cultured cells were treated with a mixture prepared by mixing 60 nM of the Ang2 antibody (10D6) with 40 nM of Ang2 protein (R&D systems) and letting them stand for 20 min. and further cultured for 30 min. For comparison, groups in which Ang1 (R&D systems) 4 nM, Ang2 (R&D systems) 40 nM, and Ang2 (R&D systems) 40 nM+anti-Ang2 antibody (Regeneron) 60 nM were treated respectively were prepared.
The cells were washed using PBS, treated with a lysis buffer (Roche), collected to a tube to be dissolved at 4° C. for 30 min. and then, centrifuged at 13,000 rpm for 15 min. to measure a supernatant. A sample buffer (Invitrogen) mixed with a reducing agent was added to 25 ug of a cell lysate, which was boiled at 95° C. for 5 min., and then, applied to NuPAGE Novex 4-12% Bis-Tris gel (Invitrogen) and transferred onto Nitrocellulose membrane (Invitrogen).
To see the presence of the phosphorylation of Akt, eNOS and 42/44 involved in the downstream signaling, the blots were blocked with PBST mixed with 3% (v/v) skim milk (Sigma) for 30 min. and then treated with an anti pAkt antibody, anti p-eNOS antibody, and anti p-42/44 antibody (all of them; cell signaling). The blots were reacted in a stripping buffer (Thermo) for 15 min. and then blocked again to identify Akt, eNOS, and 42/44 using an anti Akt antibody, anti eNOS antibody, and anti 42/44 antibody (all of them; cell signaling).

HUVEC monolayer = test: In vitro vascular permeability assay (FITC-dextran); conditions: 200 ng/ml Ang1 alone or 200 ng/ml Ang2 + 1 ug/ml 10D6
Procedure: To see the cell permeability suppression effects of antibody 10D6, in vitro vascular permeability assay kit (Millipore) was employed. HUVEC (ATCC) cells (5×10^4) were added to a collagen-coated transwell and cultured for 2 days to prepare a confluent monolayer. It was treated with 200 ng/ml of Ang2 or 200 ng/ml of Ang1 (R&D systems) alone, or 200 ng/ml of Ang2 and 1 ug/ml of antibody 10D6, pre-incubated for 30 min. and then, treated with 100 ng/ml of LPS (Lipopolysaccharide; Sigma) or 100 ng/ml TNF-a (R&D systems) to induce the permeability of HUVEC monolayer. LPS or TNF-a weakens binding between HUVEC cells to form a gap therebetween, thereby increasing the migration of materials in the HUVEC monolayer. After 6-hour incubation for the LPS treatment group and 22-hour incubation for the TNF-a group, the upper chamber was treated with FITC-dextran (Millipore) and incubated for 18 min. The fluorescence of FITC-dextran migrated to the lower chamber was measured at 485/535 nm (Ex/Em) setting using an Envision 2104 multilabel Reader (Perkinelmer).

ICAM-1 = test: LPS-induced mRNA expression of ICAM-1 in HUVEC (qPCR); conditions: 100 ng/ml LPS 5 hours, 0.2 ug/ml Ang1 or 0.1 ug/ml Ang2 + 0.5 ug/ml antibody
Procedure: (§1) To see anti-inflammatory effects by antibody 10D6, HUVEC (ATCC) cells (4×10^5) were treated with Ang2 alone or Ang2 together with antibody 10D6, and a group in which Ang1 and Ang2 (R&D systems) and Regeneron Co. antibody (RG antibody) were co-treated was included as a control group. HUVEC cells were treated with 0.2 ug/ml of Ang1, 0.1 ug/ml of Ang2, or 0.1 ug/ml of Ang2 and 0.5 ug/ml of antibody, respectively and after 30-min. pre-incubation, they were treated with 100 ng/ml of LPS (Sigma) to induce inflammatory response and incubated for 5 hours.
(§2) The degree of the inflammatory response was identified by measuring the mRNA expression degree of an inflammatory adhesion substance (ICAM-1, E-selectin). The cells were washed using PBS, RNA was extracted using RNeasy Mini kit (Qiagen), and among them, 2 ug of RNA was synthesized into cDNA using Transcriptor First Strand cDNA synthesis kit (Roche). qPCR reaction was performed using RT2 SYBR™ Green Mastermix (Qiagen) and LightCycler™ 480 Real-Time PCR System (Roche). As an internal control for calibrating the amount of RNA in a sample, HPRT1 was used, and qPCR complied with the following procedures with regard to all the primers.
(§3) Step 1: 95° C., 10 min; Step 2 (45 cycles): Step 2-1: 95° C., 15 sec; Step 2-2: 60° C., 1 min; Step 3: 65° C., 15 sec; Step 4: 95° C., continuous (every 20° C.); Step 6: 40° C., 10 sec.

E-selectin = test: LPS-induced mRNA expression of E-selectin in HUVEC (qPCR); conditions: 100 ng/ml LPS 5 hours, 0.2 ug/ml Ang1 or 0.1 ug/ml Ang2 + 0.5 ug/ml antibody
Procedure: as §1, §2, §3

[1] = tested on: HL-60 cells adhered to HUVEC cells; test: Binding between inflammatory cells HL-60 and HUVEC induced by TNF-a; conditions: 1 ng/ml TNF-a; 0.2 ug/ml Ang1 or 0.1 ug/ml Ang2 + 0.5 ug/ml 10D6
Procedure: Meanwhile, if the expression of inflammatory adhesion substances (ICAM-1, E-selectin, etc.) of vascular endothelial cells is increased, binding between the inflammatory cells and the vascular endothelial cells are accelerated and inflammatory response is thus induced. To confirm this, an experiment for measuring binding between inflammatory cells HL-60 (ATCC) and HUVEC was conducted.
HUVEC cells (4×10^5) were cultured in a 24-mutiwell plate and treated with 0.1 ug/ml of Ang2 alone or 0.1 ug/ml of Ang2 together with 0.5 ug/ml of antibody 10D6, and a group in which 0.2 ug/ml of Ang1, and 0.1 ug/ml of Ang2 (R&D systems) and 0.5 ug/ml of Regeneron Co. antibody (RG antibody) were co-treated was included as a control group. As above, the HUVEC cells were treated with Angiopoietin and antibody and after 30-min. pre-incubation, they were treated with 1 ng/ml of TNF-a (eBioscience) to induce inflammatory response and incubated for 2 hours and 30 min.
After the HUVEC cells were washed with complete media (Lonza), HL-60 cells dyed with Calcein-AM (BD bioscience) solution were added at the amount of 2.5×10^5 cells to each well and incubated for 1 hour. […] The obtained lysate was transported to a 96-well plate, and fluorescence strengths derived from the HL-60 cells were measured at 485/535 nm (Ex/Em) setting using an Envision 2104 multilabel Reader (Perkin Elmer).

B1: Ang1: Angiopoietin-1 protein (R&D systems), ligand which activates the Tie2 receptor (protein, UniProt Q15389 16-498, looked up)
Angiopoietin-1: HIGCSNQRRSPENSGRRYNRIQHGQCAYTFILPEHDGNCRESTTDQYNTNALQRDAPHVEPDFSSQKLQHLEHVMENYTQWLQKLENYIVENMKSEMAQIQQNAVQNHTATMLEIGTSLLSQTAEQTRKLTDVETQVLNQTSRLEIQLLENSLSTYKLEKQLLQQTNEILKIHEKNSLLEHKILEMEGKHKEELDTLKEEKENLQGLVTRQTYIIQELEKQLNRATTNNSVLQKQQLELMDTVHNLVNLCTKEGVLLKGGKREEEKPFRDCADVYQAGFNKSGIYTIYINNMPEPKKVFCNMDVNGGGWTVIQHREDGSLDFQRGWKEYKMGFGNPSGEYWLGNEFIFAITSQRQYMLRIELMDWEGNRAYSQYDRFHIGNEKQNYRLYLKGHTGTAGKQSSLILHGADFSTKDADNDNCMCKCALMLTGGWWFDACGPSNLNGMFYTAGQNHGKLNGIKWHYFKGPSYSLRSTTMMIRPLDF
For B1, the “downstream signaling (phosphorylation of Akt, eNOS, 42/44) compared to Ang2 sole-treatment and Ang2 + RG antibody” value (Akt, eNOS and 42/44) was “strongly induced”, the “vascular permeability increased by LPS” value (HUVEC monolayer; 100 ng/ml LPS, 6 hour) was “decreased to the control level” and the “vascular permeability increased by TNF-a” value (HUVEC monolayer; 100 ng/ml TNF-a, 22 hour) was “decreased to the control level”. The “expression of ICAM-1 induced by LPS” value (ICAM-1) was “remarkably suppressed”, the “expression of E-selectin induced by LPS” value (E-selectin) was “remarkably suppressed” and the “binding between HUVEC cells and HL-60 cells induced by TNF-a” value [1] was “remarkably suppressed”.

Reference: US9505841B2, “Use of an anti-Ang2 antibody” (Samsung Electronics Co., Ltd., priority 2013, dated 2016)
